Experimental data as given in article doi:10.1101/2022.02.05.479199.
Positions count from the first letter of the chain named.

Columns and labels:
[1] = target: RPA-DBD-D^MB543 (S. cerevisiae) (UniProt P22336); assay: C-trap optical tweezers with confocal fluorescence
[2] = target: RPA-DBD-A^Cy3 (S. cerevisiae) (UniProt P22336); assay: FRET or BRET
[3] = target: RPA-DBD-D^Cy3 (S. cerevisiae) (UniProt P22336); assay: FRET or BRET
[4] = target: F-A-B-DBD-A^MB543 (S. cerevisiae); assay: other fluorescence titration
[5] = target: RPA-DBD-A^MB543 (S. cerevisiae) (UniProt P22336); assay: other fluorescence titration

B1: Rtt105^Cy5 (natural protein)
chain: MYSNHNLNSDDCSFDWNEEKAAELQRTGVSFDRSLTPQSLRTSTRRLSEENKQQSGTMHIDTSPSVVSDIISSRRDRSQDFFGPHSSSPIAPSERQRADQRSRLESMRLTRRRDKMTKVRGGLEKMEEMIMQGEHLREMQRLKQEAQKNALPSDMAEYMEWQNNEDLEDDELLAFIEKQETYKNELEHFLNNANKNVYENNSYPNSHT
modifications: Cy5 (maleimide) on Cys-12
With B1 the t1/2 of dissociation [1] was 5 s, the kobs (single exponential model) [2] was 0.62 s⁻¹ and the kobs (single-step model) [2] was 0.2 s⁻¹. For the same binder, the kobs,1 (two-step model) [3] was 3.5 s⁻¹ and the kobs,2 (two-step model) [3] was 0.2 s⁻¹.

B2: Regulator of Ty1 Transposition 105 (Rtt105) (natural protein)
chain: B1 chain with S13C
B2 was tested, and the Kd [4] was 33.9 nM and the Kd [5] was 61.1 nM.
